Experimental data taken from the supplement of paper PMC10567573.

B1: KCNG1 (parent)
chain: LFVTVTAVNLSVSTLPSLREEEEQ
B2: SNAP91 (parent)
chain: FGGSFMAPSPSPVTPAQNNLLQPN

Variants of: B1
Test: protein stability index of a GFP-peptide fusion (GPS, HEK-293T) (PSI 1-6); higher = more stable
Conditions: c terminus: a fixed tail appended
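Further: lentivirally expressed fusions sorted by FACS into six bins by GFP to DsRed ratio, PSI derived from sequencing read proportions per bin multiplied by bin number.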

Protein stability index, by site and new letter:
R19: N 1.96; C 2.09; D 2.32; Q 1.2; S 2.41; L 2.85; E 1.43; H 1.41; F 3.41; V 1.99
F2: L 1.95; C 1.67; K 1.72; A 2.27; H 2.19; R 2.5; P 4.83; M 1.26; G 2.41; T 1.25; S 1.99; Y 1.75; D 3.99; N 2.27; Q 2.09
S13: F 1.52; L 2.71; H 1.29; D 1.55; Q 1.78; I 2.89; Y 3.08
N9: Y 2.02; H 3.18; Q 2.65; T 3.74; P 1.73; D 1.45
L15: I 1.36; M 2.51; G 1.72; K 1.62; Q 1.05; D 3.09; T 3.77; P 2.48; C 2.81; V 1.76
E23: Y 2.93; K 2.12; C 2.7; T 4.29; L 3.24
L10: S 2.21; C 1.45; M 2.21; P 2.32; I 3.17; T 2.03; G 2.16; W 2.88; D 2.76; K 2.47; V 1.9; Y 1.95; N 3.48; R 3.45; Q 3.77
E20: T 3.53; P 1.7; F 3.08; S 3.18; K 1.62; C 3.25; D 1.67
L18: S 3.17; T 3.48; Y 1.35; H 2.87; W 3.02; I 1.62; Q 2.23; P 2.48; D 2.05; R 1.57; A 3.29; V 2.17; N 2.47; M 3.35
Q24: D 2.28; L 1.02; M 2.66; N 2.31; K 1.74; S 2.44; Y 2.27; E 1.37
T14: E 1.99; V 2.13; H 2.56; Y 2.34; D 1.52; R 4.33; K 1.77; P 2.61; S 1.36
S11: M 3.64; Y 4.29; G 1.73; R 2.63; P 2.02; E 1.72; H 1.72
A7: P 1.8; M 2.03; K 3.01; C 2.9; D 2.89; G 1.5; E 3.03; I 4.2; Y 3.4; Q 2.58; H 2.5; T 1.34
E21: P 2.06; N 3.49; V 1.63; H 2.28; Y 3.39; R 2.43; K 2.25; G 1.01
T4: H 1.93; A 1.37; Y 3.61; P 3.13; M 3.06; Q 2.71; L 1.08; S 1.49; K 1.64; G 2.89; N 2.45; D 3.23; E 1.75
V12: T 2.05; A 2.71; H 1.53; F 2.17; Y 2.08; W 2.35; L 3.1; G 1.45; Q 1.4; K 2.44; P 1.6; E 2.19; R 1.89; C 2.79; S 1.85; D 1.71
V8: M 1.23; S 2.77; C 3.11; R 2.51; N 2.49; E 3.16; Y 2.15; P 2.29; H 2.95; T 2.09; Q 1.85; D 2.29
T6: L 1.25; A 1.69; N 2.29; H 1.85; E 1.79; R 1.64; G 1.3; S 2.27; P 3.96
V3: K 3.71; P 5.3; G 3.53; F 1.65; L 1.53; I 2.67; H 3.75; E 4.93; M 1.75; A 2.67; N 4.51; C 2.65; S 4.05; Q 3.58; R 4.5; Y 1.92; T 4.52; D 4.92
S17: Y 1.51; C 1.79; F 1.79; P 2.55; H 1.26; T 2.22; E 3.27; G 2.51; A 1.55
P16: C 1.65; M 3.14; R 1.75; K 2.5; N 3.87; S 2.05; D 1.19
E22: H 1.61; L 3.04; S 1.89; K 3.13; I 2.19; M 3.4; Q 3.16; P 2.31
L1: I 2.27; M 1.98; R 3.04; Y 1.97; S 3.56; A 1.78; F 1.95; C 2.1; E 4.32; K 3.84; D 4.52; Q 3.71; N 4.05; P 4.33; G 3.23
V5: S 3.5; I 3.56; C 2.1; E 4.46; P 4.91; Q 3.94; M 2.18; R 3.2; W 2.3; G 3.99; K 3.75; H 3.52; F 2.68; N 3.64; T 3.16; A 2.42; D 4.51; L 2.2; Y 2.14

Variants of: B2
Test: as above
Conditions: c terminus: a fixed tail appended

Protein stability index: each site, then its substitutions
L21: R 2.88
P10: E 1.22; L 2.55; D 2.72; Y 2.38; K 3.1; S 2.49; F 2.89; H 2.52; Q 2.7; M 3.19; G 2.18; R 1.13; W 2.51; V 1.58; N 1.51
T14: M 2.4; V 2.2; R 1.54; L 2.13; I 1.7; G 2.08; K 2.84; N 1.89; W 1.95; C 4.16; F 1.79; E 1.31; D 1.29; Q 2.43
P15: Q 2.27; N 1.79; D 2.67; C 4.08; L 1.95; W 1.6; A 1.86; R 2.4; Y 2.91; M 3.65; G 2.3; S 2.19; H 2.27; T 2.01; I 2.65; F 2.84; V 2.12; K 1.83; E 1.93
P12: M 2.62; G 1.72; L 1.61; R 2.17; N 2.31; S 1.27; T 1.01; C 2.72; K 1.47; A 2; V 1.73; D 1.8; I 1.94; Q 2.21; H 2.53; W 1.83; E 1.77; Y 2.09; F 1.62
S11: R 1.68; E 2.38; L 2.84; V 3.42; K 1.98; M 2.83; Q 3.14
